Data set [1] deals with the molecule itself. Description: cross-linking.
Data set [2] addresses Ribosomal protein L29 (Escherichia coli (endogenous in …, UniProt P0A7M6 1-63)). The data set can be described thus: cross-linking.

B1: DnaJ, recombinant (natural protein, Escherichia coli, UniProt P08622 1-376, looked up)
chain: MAKQDYYEILGVSKTAEEREIRKAYKRLAMKYHPDRNQGDKEAEAKFKEIKEAYEVLTDSQKRAAYDQYGHAAFEQGGMGGGGFGGGADFSDIFGDVFGDIFGGGRGRQRAARGADLRYNMELTLEEAVRGVTKEIRIPTLEECDVCHGSGAKPGTQPQTCPTCHGSGQVQMRQGFFAVQQTCPHCQGRGTLIKDPCNKCHGHGRVERSKTLSVKIPAGVDTGDRIRLAGEGEAGEHGAPAGDLYVQVQVKQHPIFEREGNNLYCEVPINFAMAALGGEIEVPTLDGRVKLKVPGETQTGKLFRMRGKGVKSVRGGAQGDLLCRVVVETPVGLNERQKQLLQELQESFGGPTGEHNSPRSKSFFDGVKKFFDDLTR
Consider B1, for which the binding result in data set [1] and in data set [2] was “binds” throughout.
